# Experimental data reported in patent US20220040304A1, “A COMPOSITION FOR CANCER CELL DEATH AND ITS USE” (Industry-University Cooperation Foundation Hanyang …, priority 2018, published 2022).
# Experiment: Bioluminescence assay of purified proteins with Co-h substrate (BRET)
# Format: physicochemical
# Conditions: protein 1 μM, Co-h 50 μM, 1×PBS
# Method: In addition, 100 μL of buffer (1×PBS) containing the protein purified in Example 1 (final concentration: 1 μM) was dispensed into a 96-well plate (SPL Cell Culture Plate, 96 well (SPL, Cat #30196)), and bioluminescence assay was then performed using 50 μL of buffer (1×PBS) containing a Co-h substrate solution (final concentration: 50 μM), which is a wild-type 2-deoxy derivative. Bioluminescence intensity was immediately measured at a wavelength of 300 to 800 nm using a Thermo Scientific™ Varioskan™ Flash Multimode Reader.
substance,measurement,value
"MS: first protein MiniSOG, ROS-generating protein (singlet oxygen), expressed from pRSET-MiniSOG, 13 kDa [reference compound]",emission in bioluminescence assay (BRET),500 nm
